Data set [1] concerns the target T1, SRSF1 RRM1+2 (ASF/SF2) (UniProt Q07955 1-196). Nature of the data set: competition.
Data set [2] concerns the target T1, SRSF1 RRM1+2 (ASF/SF2). Nature of the data set: competition. The source holds these as a separate data set.
The target of data set [3] is T1, SRSF1 RRM1+2 (ASF/SF2). Nature of the data set: fluorescence anisotropy.

T1 sequence (Q07955 1-196): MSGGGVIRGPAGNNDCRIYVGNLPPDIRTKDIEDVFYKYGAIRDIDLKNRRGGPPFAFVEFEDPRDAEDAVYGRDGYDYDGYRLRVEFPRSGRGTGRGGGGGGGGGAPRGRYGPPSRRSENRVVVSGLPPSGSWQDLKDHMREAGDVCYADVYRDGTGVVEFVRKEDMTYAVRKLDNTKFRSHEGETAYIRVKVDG

The Kd is the concentration at which binding is half-saturated. The molecule GGGGCCGGGGCCGGGGCCGGGGCC (ssRNA) [(G4C2)4 unlabeled, folded without K+] returned an equilibrium dissociation constant (Kd) in data set [1] of less than 21 nM.

In turn, AAAAUUAAAAUUAAAAUUAAAAUU (ssRNA) [(A4U2)4 unlabeled] displayed a Kd in data set [2] of roughly 200 nM.

The molecule AAAUCAGAGGAAAA (ssRNA) [SRSF1 canonical motif RNA] registered a Kd in data set [3] of 21 ± 3 nM.

Values taken from PMC11983130.
